Consider eleven molecules from US20120165503A1 (Merck Sharp & Dohme, published 2012).

Common to all, as to assay: cell-based or functional assay
In experiment [1] the target is T1, human GLP-1 receptor (human, UniProt P43220 24-463).
The target of experiment [2] is T2, human glucagon receptor (human, UniProt P47871 26-477).
Experiment [3] concerns the target T1, human GLP-1 receptor. The source holds these as a separate data set.
For experiment [4], the target named is T2, human glucagon receptor. This is another data set of the same source.

*1 amine or outer side, *2 acyl side, *3 side chain or, on linkers, in order; H or OH if unused. Where no end group is shown, it is not given here. Side-chain parts run from the residue outwards. [ ]: non-standard residue; d: D form. The star is where a group is joined. (mPEG)2 40 kDa = C3 = Cys(mPEG)240kDa, branched (mPEG)2, 40 kDa; d(γGlu) = O=C(O)[C@@H](CCC(=O)[*:2])N[*:1]; γGlu = O=C(O)[C@H](CCC(=O)[*:2])N[*:1]; Palmitoyl = CCCCCCCCCCCCCCCC(=O)*; Myristoyl = CCCCCCCCCCCCCC(=O)*; Aib = CC(C)(N)C(=O)O

T2 sequence (P47871 26-477): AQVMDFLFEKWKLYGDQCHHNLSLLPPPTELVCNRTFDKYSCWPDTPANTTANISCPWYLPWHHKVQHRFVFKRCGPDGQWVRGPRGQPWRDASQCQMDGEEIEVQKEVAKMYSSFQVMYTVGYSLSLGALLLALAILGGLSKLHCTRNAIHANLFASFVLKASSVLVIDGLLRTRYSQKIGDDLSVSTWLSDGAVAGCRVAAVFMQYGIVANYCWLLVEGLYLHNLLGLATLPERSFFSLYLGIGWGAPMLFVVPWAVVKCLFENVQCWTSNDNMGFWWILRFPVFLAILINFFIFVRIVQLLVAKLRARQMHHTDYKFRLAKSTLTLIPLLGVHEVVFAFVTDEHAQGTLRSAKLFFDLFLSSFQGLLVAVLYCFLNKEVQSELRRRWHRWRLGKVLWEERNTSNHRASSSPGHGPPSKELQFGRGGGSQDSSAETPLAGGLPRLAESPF

B1: OXM107 (peptide)
peptide: HXQGTFTSDYSKYLDSRRAQDFVCWLMNTKRNRNNIA
modifications: Aib at position 2; C3 = Cys(mPEG)240kDa (40 kDa) at position 24; methionine sulfoxide at position 27; C-terminal amide
With B1, in experiment [1], the “GLP-1R EC50” value came out at 29.7 nM. In addition, in experiment [2], the “% Activation of GCGR” value was 30% and the “GCGR EC50” value was greater than 1000 nM.
Consider H[Aib]QGTFTSDYSKYLDSRRAQC((mPEG)2 40 kDa)FVQWLMNTKRNRNNIA-NH2 [OXM105], for which, in experiment [1], the “GLP-1R EC50” value amounted to 28.5 nM. Moreover, in experiment [2], the “% Activation of GCGR” value was 21% and the “GCGR EC50” value worked out at 648 nM.

B2: MM127 (peptide)
peptide: H[dS]QGTFTSDK([γGlu-γGlu-Palmitoyl])SKYLD[Aib]RAAQDFVQWLMDTK[γGlu]-NH2
modifications: N-terminus assumed
SMILES: CCCCCCCCCCCCCCCC(=O)N[C@@H](CCC(=O)N[C@@H](CCC(=O)NCCCC[C@H](NC(=O)[C@H](CC(=O)O)NC(=O)[C@H](CO)NC(=O)[C@@H](NC(=O)[C@H](Cc1ccccc1)NC(=O)[C@@H](NC(=O)CNC(=O)[C@H](CCC(N)=O)NC(=O)[C@@H](CO)NC(=O)[C@@H](N)Cc1c[nH]cn1)[C@@H](C)O)[C@@H](C)O)C(=O)N[C@@H](CO)C(=O)N[C@@H](CCCCN)C(=O)N[C@@H](Cc1ccc(O)cc1)C(=O)N[C@@H](CC(C)C)C(=O)N[C@@H](CC(=O)O)C(=O)NC(C)(C)C(=O)N[C@@H](CCCNC(=N)N)C(=O)N[C@@H](C)C(=O)N[C@@H](C)C(=O)N[C@@H](CCC(N)=O)C(=O)N[C@@H](CC(=O)O)C(=O)N[C@@H](Cc1ccccc1)C(=O)N[C@H](C(=O)N[C@@H](CCC(N)=O)C(=O)N[C@@H](Cc1c[nH]c2ccccc12)C(=O)N[C@@H](CC(C)C)C(=O)N[C@@H](CCSC)C(=O)N[C@@H](CC(=O)O)C(=O)N[C@H](C(=O)N[C@@H](CCCCN)C(=O)N[C@@H](CCC(N)=O)C(=O)O)[C@@H](C)O)C(C)C)C(=O)O)C(=O)O
On to B2, for which the “hGLP-1R EC50” value in experiment [3] stood at 0.004 nM. The “hGCGR EC50” value in experiment [4] came to 0.004 nM.
Consider H[dS]QGTFTSDK([dE-dE-Palmitoyl])SKYLDERRAQDFVQWLMNTK[γGlu]-NH2 [MM117], for which the “hGLP-1R EC50” value in experiment [3] amounted to 0.93 nM. Besides, the “hGCGR EC50” value in experiment [4] stood at 0.25 nM.

B3: MM115 (peptide)
peptide: H[dS]QGTFTSDK([Arg-Arg-Palmitoyl])SKYLDERRAQDFVQWLMNTK[γGlu]-NH2
modifications: N-terminus assumed
SMILES: CCCCCCCCCCCCCCCC(=O)N[C@@H](CCCNC(=N)N)C(=O)N[C@@H](CCCNC(=N)N)C(=O)NCCCC[C@H](NC(=O)[C@H](CC(=O)O)NC(=O)[C@H](CO)NC(=O)[C@@H](NC(=O)[C@H](Cc1ccccc1)NC(=O)[C@@H](NC(=O)CNC(=O)[C@H](CCC(N)=O)NC(=O)[C@@H](CO)NC(=O)[C@@H](N)Cc1c[nH]cn1)[C@@H](C)O)[C@@H](C)O)C(=O)N[C@@H](CO)C(=O)N[C@@H](CCCCN)C(=O)N[C@@H](Cc1ccc(O)cc1)C(=O)N[C@@H](CC(C)C)C(=O)N[C@@H](CC(=O)O)C(=O)N[C@@H](CCC(=O)O)C(=O)N[C@@H](CCCNC(=N)N)C(=O)N[C@@H](CCCNC(=N)N)C(=O)N[C@@H](C)C(=O)N[C@@H](CCC(N)=O)C(=O)N[C@@H](CC(=O)O)C(=O)N[C@@H](Cc1ccccc1)C(=O)N[C@H](C(=O)N[C@@H](CCC(N)=O)C(=O)N[C@@H](Cc1c[nH]c2ccccc12)C(=O)N[C@@H](CC(C)C)C(=O)N[C@@H](CCSC)C(=O)N[C@@H](CC(N)=O)C(=O)N[C@H](C(=O)N[C@@H](CCCCN)C(=O)N[C@@H](CCC(N)=O)C(=O)O)[C@@H](C)O)C(C)C
For the molecule B3, the “hGLP-1R EC50” value in experiment [3] worked out at 1.08 nM. For the same molecule, the “hGCGR EC50” value in experiment [4] was 1.31 nM.

B4: MM102 (peptide)
peptide: H[dS]QGTFTSDK([γGlu-γGlu-Palmitoyl])SKYLD[Aib]RRAQDFVQWLMNTE[γGlu]-NH2
modifications: N-terminus assumed
SMILES: CCCCCCCCCCCCCCCC(=O)N[C@@H](CCC(=O)N[C@@H](CCC(=O)NCCCC[C@H](NC(=O)[C@H](CC(=O)O)NC(=O)[C@H](CO)NC(=O)[C@@H](NC(=O)[C@H](Cc1ccccc1)NC(=O)[C@@H](NC(=O)CNC(=O)[C@H](CCC(N)=O)NC(=O)[C@@H](CO)NC(=O)[C@@H](N)Cc1c[nH]cn1)[C@@H](C)O)[C@@H](C)O)C(=O)N[C@@H](CO)C(=O)N[C@@H](CCCCN)C(=O)N[C@@H](Cc1ccc(O)cc1)C(=O)N[C@@H](CC(C)C)C(=O)N[C@@H](CC(=O)O)C(=O)NC(C)(C)C(=O)N[C@@H](CCCNC(=N)N)C(=O)N[C@@H](CCCNC(=N)N)C(=O)N[C@@H](C)C(=O)N[C@@H](CCC(N)=O)C(=O)N[C@@H](CC(=O)O)C(=O)N[C@@H](Cc1ccccc1)C(=O)N[C@H](C(=O)N[C@@H](CCC(N)=O)C(=O)N[C@@H](Cc1c[nH]c2ccccc12)C(=O)N[C@@H](CC(C)C)C(=O)N[C@@H](CCSC)C(=O)N[C@@H](CC(N)=O)C(=O)N[C@H](C(=O)N[C@@H](CCC(=O)O)C(=O)N[C@@H](CCC(N)=O)C(=O)O)[C@@H](C)O)C(C)C)C(=O)O)C(=O)O
Regarding B4, the “hGLP-1R EC50” value in experiment [3] is 0.034 nM. For the same molecule, the “hGCGR EC50” value in experiment [4] stood at 0.003 nM.

B5: MM121 (peptide)
peptide: H[dS]QGTFTSDK([γGlu-γGlu-Myristoyl])SKYLD[Aib]RRAQDFVQWLMNTK[γGlu]-NH2
modifications: N-terminus assumed
SMILES: CCCCCCCCCCCCCC(=O)N[C@@H](CCC(=O)N[C@@H](CCC(=O)NCCCC[C@H](NC(=O)[C@H](CC(=O)O)NC(=O)[C@H](CO)NC(=O)[C@@H](NC(=O)[C@H](Cc1ccccc1)NC(=O)[C@@H](NC(=O)CNC(=O)[C@H](CCC(N)=O)NC(=O)[C@@H](CO)NC(=O)[C@@H](N)Cc1c[nH]cn1)[C@@H](C)O)[C@@H](C)O)C(=O)N[C@@H](CO)C(=O)N[C@@H](CCCCN)C(=O)N[C@@H](Cc1ccc(O)cc1)C(=O)N[C@@H](CC(C)C)C(=O)N[C@@H](CC(=O)O)C(=O)NC(C)(C)C(=O)N[C@@H](CCCNC(=N)N)C(=O)N[C@@H](CCCNC(=N)N)C(=O)N[C@@H](C)C(=O)N[C@@H](CCC(N)=O)C(=O)N[C@@H](CC(=O)O)C(=O)N[C@@H](Cc1ccccc1)C(=O)N[C@H](C(=O)N[C@@H](CCC(N)=O)C(=O)N[C@@H](Cc1c[nH]c2ccccc12)C(=O)N[C@@H](CC(C)C)C(=O)N[C@@H](CCSC)C(=O)N[C@@H](CC(N)=O)C(=O)N[C@H](C(=O)N[C@@H](CCCCN)C(=O)N[C@@H](CCC(N)=O)C(=O)O)[C@@H](C)O)C(C)C)C(=O)O)C(=O)O
As to B5, the “hGLP-1R EC50” value in experiment [3] was found to be 0.131 nM. The “hGCGR EC50” value in experiment [4] was 0.006 nM.

B6: MM113 (peptide)
peptide: H[dS]QGTFTSDK([γGlu-γGlu-Palmitoyl])SKYLD[Aib]RRAQDFVQWLMNTE[d(γGlu)]-NH2
modifications: N-terminus assumed
SMILES: CCCCCCCCCCCCCCCC(=O)N[C@@H](CCC(=O)N[C@@H](CCC(=O)NCCCC[C@H](NC(=O)[C@H](CC(=O)O)NC(=O)[C@H](CO)NC(=O)[C@@H](NC(=O)[C@H](Cc1ccccc1)NC(=O)[C@@H](NC(=O)CNC(=O)[C@H](CCC(N)=O)NC(=O)[C@@H](CO)NC(=O)[C@@H](N)Cc1c[nH]cn1)[C@@H](C)O)[C@@H](C)O)C(=O)N[C@@H](CO)C(=O)N[C@@H](CCCCN)C(=O)N[C@@H](Cc1ccc(O)cc1)C(=O)N[C@@H](CC(C)C)C(=O)N[C@@H](CC(=O)O)C(=O)NC(C)(C)C(=O)N[C@@H](CCCNC(=N)N)C(=O)N[C@@H](CCCNC(=N)N)C(=O)N[C@@H](C)C(=O)N[C@@H](CCC(N)=O)C(=O)N[C@@H](CC(=O)O)C(=O)N[C@@H](Cc1ccccc1)C(=O)N[C@H](C(=O)N[C@@H](CCC(N)=O)C(=O)N[C@@H](Cc1c[nH]c2ccccc12)C(=O)N[C@@H](CC(C)C)C(=O)N[C@@H](CCSC)C(=O)N[C@@H](CC(N)=O)C(=O)N[C@H](C(=O)N[C@@H](CCC(=O)O)C(=O)N[C@H](CCC(N)=O)C(=O)O)[C@@H](C)O)C(C)C)C(=O)O)C(=O)O
Consider B6, for which, in experiment [3], the “hGLP-1R EC50” value amounted to 0.023 nM. Moreover, the “hGCGR EC50” value in experiment [4] was found to be 0.006 nM.
In the same order, the values of H[dS]QGTFTSDK([homocysteic acid-homocysteic acid-Palmitoyl])SKYLDERRAQDFVQWLMNTK[γGlu]-NH2 [MM116] are 0.132 nM and 0.85 nM.
As to H[Aib]QGTFTSDYSKYLDSRRAC((mPEG)2 40 kDa)DFVQWLMNTKRNRNNIA-NH2 [OXM103], the “GLP-1R EC50” value in experiment [1] worked out at 6.2 nM. Moreover, in experiment [2], the “% Activation of GCGR” value was 75% and the “GCGR EC50” value was determined as 203 nM.

B7: MM103 (peptide)
peptide: H[dS]QGTFTSDK([γGlu-γGlu-Palmitoyl])SKYLD[Aib]RRAQDFVQWLMNT[dK][γGlu]-NH2
modifications: N-terminus assumed
SMILES: CCCCCCCCCCCCCCCC(=O)N[C@@H](CCC(=O)N[C@@H](CCC(=O)NCCCC[C@H](NC(=O)[C@H](CC(=O)O)NC(=O)[C@H](CO)NC(=O)[C@@H](NC(=O)[C@H](Cc1ccccc1)NC(=O)[C@@H](NC(=O)CNC(=O)[C@H](CCC(N)=O)NC(=O)[C@@H](CO)NC(=O)[C@@H](N)Cc1c[nH]cn1)[C@@H](C)O)[C@@H](C)O)C(=O)N[C@@H](CO)C(=O)N[C@@H](CCCCN)C(=O)N[C@@H](Cc1ccc(O)cc1)C(=O)N[C@@H](CC(C)C)C(=O)N[C@@H](CC(=O)O)C(=O)NC(C)(C)C(=O)N[C@@H](CCCNC(=N)N)C(=O)N[C@@H](CCCNC(=N)N)C(=O)N[C@@H](C)C(=O)N[C@@H](CCC(N)=O)C(=O)N[C@@H](CC(=O)O)C(=O)N[C@@H](Cc1ccccc1)C(=O)N[C@H](C(=O)N[C@@H](CCC(N)=O)C(=O)N[C@@H](Cc1c[nH]c2ccccc12)C(=O)N[C@@H](CC(C)C)C(=O)N[C@@H](CCSC)C(=O)N[C@@H](CC(N)=O)C(=O)N[C@H](C(=O)N[C@H](CCCCN)C(=O)N[C@@H](CCC(N)=O)C(=O)O)[C@@H](C)O)C(C)C)C(=O)O)C(=O)O
Consider B7, for which the “hGLP-1R EC50” value in experiment [3] came out at 0.026 nM. Further, the “hGCGR EC50” value in experiment [4] stood at 0.005 nM.
